According to US11319551B2, “Methods and compositions for PPO herbicide tolerance in plants” (Monsanto Technology LLC, priority 2015, dated 2022):

What was measured:
[1] = PPO enzyme assay, apparent Km for substrate; format: biochemical; conditions: substrate protoporphyrinogen
[2] = system: hemG knockout E. coli strain; format: cell-based; conditions: acifluorfen and S-3100
[3] = system: transgenic soybean plants; test: S-3100 tolerance of transformed soybean plantlets at five weeks; format: in vivo; design: key to Tolerance score to S-3100 at 5 weeks: 0 for poor tolerance, high damage, low green coloration; 1 for some tolerance, average damage, moderate green coloration; 2 for good tolerance, low damage, high green coloration; conditions: for Tolerance score to S-3100 at 5 weeks: day four post application
Description: The microbial HemY PPO enzymes were expressed in transgenic soybean plants, and the transgenic plants were analyzed for PPO herbicide tolerance. […] For plant transformation, the nucleotide sequences encoding the HemY PPO enzymes were codon optimized for dicot expression. This permitted the side-by-side comparison of the seven different HemY PPO enzymes with thirty-nine different targeting peptides using the same promoter and 3′UTR elements for gene expression
The plant transformation constructs were used to transform soybean excised embryos (germplasm A3555) using A. tumefaciens and standard methods known in the art. Four hundred explants were inoculated for each construct resulting in twelve containers per construct. A sterile PPO herbicide solution was used for herbicide tolerance testing. The herbicide solution consisted of 0.3 g of S-3100 in crop oil concentrate (5.0 mL) and 495 mL of deionized water. This was filtered through a 0.45 micron Nalgene® Rapid-Flow™ Tissue Culture Filter Unit and Surfactant-Free Cellulose Acetate membrane filter unit (VWR, Radnor, Pa., USA). The resulting sterile solution was shaken before application.
At five weeks post-transformation, four of the twelve plant containers per construct were sprayed with two passes of the sterile PPO herbicide solution. The treated plantlets were then enclosed in the container and received at least 15 hours of light exposure post spray each day for four days. At the end of day four post application of S-3100, the treated plantlets were photographed and scored on a visual scale of green coloration (green coloration was representative of healthy photosynthetic plant tissue as compared to photo-bleached tissue) versus damage. The scoring values were 0 for poor tolerance, high damage, low green coloration; 1 for some tolerance, average damage, moderate green coloration; and 2 for good tolerance, low damage, high green coloration. The results of herbicide application of S-3100 at five weeks is presented in Table 5, where n.d. indicates the analysis was not conducted.

B1: R2N90: microbial HemY protoporphyrinogen oxidase, SEQ ID NO:4 (protein, listed as Bacillus pumilus)
chain: MHDNQKHLVIIGGGITGLAAAFYLEKEVEEKGLPIQISLIEASPRLGGKIQTLYKDGYIIERGPDSFLERKVSGPQLAKDVGLSDQLVNNETGQAYVLVNEKLHPMPKGAVMGIPTQISPFITTGLFSVAGKARAAMDFVLPKSKQTEDQSLGEFFRRRVGDEVVENLIEPLLSGIYAGDIDRLSLMSTFPQFYQTEQQHRSLILGMKKSQQHAKAQQVTAKKQGQFQTINQGLQSLVEAVEGKLKLTTVYKGTKVKQIEKTDGGYGLQLDSGQTLFADSAIVTTPHQSIYSMFPKEAGLEYLHDMTSTSVATVALGFKDEDVHNEYDGTGFVISRNSDFSITACTWTNKKWPHTAPKGKTLLRAYVGKAGDESIVEQSDSQIVSIVLEDLKKIMDIKADPELTTVTRWKTSMPQYHVGHQKAISNMRETFKQSYPGVYITGAAFEGVGIPDCIDQGKAAISEAVSYLFS
[1]
  Km: 2.8 µM
[2]
  growth rate of hemG knockout E. coli strain in presence of PPO herbicide: slower
  tolerance to acifluorfen and S-3100 compared with strain containing R2N30 or R2N40: much better
[3]; S-3100, over the constructs with different transit peptides
  tolerance to the PPO herbicide in high-throughput screening at five weeks: did not provide tolerance
[3]; targeting peptide TP2
  Tolerance score to S-3100 at 5 weeks: 0
[3]; targeting peptide TP5
  Tolerance score to S-3100 at 5 weeks: 0
[3]; targeting peptide TP8
  Tolerance score to S-3100 at 5 weeks: 1
[3]; targeting peptide TP9
  Tolerance score to S-3100 at 5 weeks: 1
[3]; targeting peptide TP10
  Tolerance score to S-3100 at 5 weeks: 0
[3]; targeting peptide TP12
  Tolerance score to S-3100 at 5 weeks: 1
[3]; targeting peptide TP13
  Tolerance score to S-3100 at 5 weeks: 0
[3]; targeting peptide TP14
  Tolerance score to S-3100 at 5 weeks: 0
[3]; targeting peptide TP16
  Tolerance score to S-3100 at 5 weeks: 0
[3]; targeting peptide TP18
  Tolerance score to S-3100 at 5 weeks: 1
[3]; targeting peptide TP19
  Tolerance score to S-3100 at 5 weeks: 1
[3]; targeting peptide TP20
  Tolerance score to S-3100 at 5 weeks: 0
[3]; targeting peptide TP21
  Tolerance score to S-3100 at 5 weeks: 1
[3]; targeting peptide TP22
  Tolerance score to S-3100 at 5 weeks: 0
[3]; targeting peptide TP23
  Tolerance score to S-3100 at 5 weeks: 1
[3]; targeting peptide TP24
  Tolerance score to S-3100 at 5 weeks: 0
[3]; targeting peptide TP27
  Tolerance score to S-3100 at 5 weeks: 0
[3]; targeting peptide TP28
  Tolerance score to S-3100 at 5 weeks: 0
[3]; targeting peptide TP29
  Tolerance score to S-3100 at 5 weeks: 0
[3]; targeting peptide TP30
  Tolerance score to S-3100 at 5 weeks: 0
[3]; targeting peptide TP31
  Tolerance score to S-3100 at 5 weeks: 0
[3]; targeting peptide TP32
  Tolerance score to S-3100 at 5 weeks: 0
[3]; targeting peptide TP33
  Tolerance score to S-3100 at 5 weeks: 0
